Literature values in paper PMC7379096 (ACS Omega, 2020).

Details: stated in the method section, no reference given

Immunoglobulin G [IgG]
pI: 5.5–8.3
